Substitutions are numbered along the chain they refer to. Names and notes keep the numbering of the source. Blank lines part the entries; values can stand above or below the binder they belong to.
Target: T1, TNFR1 (Homo sapiens, UniProt P19438)
T1 chain: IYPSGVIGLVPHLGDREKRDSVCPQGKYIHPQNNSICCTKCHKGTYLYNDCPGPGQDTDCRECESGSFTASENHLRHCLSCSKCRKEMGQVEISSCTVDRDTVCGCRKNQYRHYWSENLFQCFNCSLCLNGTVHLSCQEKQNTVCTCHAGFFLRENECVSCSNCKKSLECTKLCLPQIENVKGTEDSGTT
Assay: yeast display SC50

apparent Kd (screen): 0.49 nM
B1: A83D (designed binder)
chain: MTLQELLREEALRRAEAEAFRYALELLAEKFPEQKEYLLDLAEEIESQIRSLSGVDVEDVRKFLDKEWAWVKELLAEHPAELDEVEAARAARLAELRAEVEAKVAA

apparent Kd (screen): 0.539 nM
B2: E84G (designed binder)
chain: B1 chain with D83A, E84G

apparent Kd (screen): 2.48 nM
B3: G54I (designed binder)
chain: B1 chain with G54I, D83A

apparent Kd (screen): 0.539 nM
B4: A23Q (designed binder)
chain: B1 chain with A23Q, D83A

apparent Kd (screen): 0.405 nM
B5: E43C (designed binder)
chain: B1 chain with E43C, D83A

apparent Kd (screen): 0.718 nM
B6: A98D (designed binder)
chain: B1 chain with D83A, A98D

apparent Kd (screen): 0.539 nM
B7: Q4C (designed binder)
chain: B1 chain with Q4C, D83A

apparent Kd (screen): 0.446 nM
B8: E43N (designed binder)
chain: B1 chain with E43N, D83A

apparent Kd (screen): 12.5 nM
B9: D40R (designed binder)
chain: B1 chain with D40R, D83A

apparent Kd (screen): 3 nM
B10: D40T (designed binder)
chain: B1 chain with D40T, D83A

apparent Kd (screen): 0.252 nM
B11: S51Y (designed binder)
chain: B1 chain with S51Y, D83A

apparent Kd (screen): 0.49 nM
B12: E77N (designed binder)
chain: B1 chain with E77N, D83A

apparent Kd (screen): 0.956 nM
B13: E84M (designed binder)
chain: B1 chain with D83A, E84M

apparent Kd (screen): 0.869 nM
B14: E84Q (designed binder)
chain: B1 chain with D83A, E84Q

apparent Kd (screen): 20.2 nM
B15: E44C (designed binder)
chain: B1 chain with E44C, D83A

apparent Kd (screen): 4.83 nM
B16: L6Q (designed binder)
chain: B1 chain with L6Q, D83A

apparent Kd (screen): 16.7 nM
B17: W70G (designed binder)
chain: B1 chain with W70G, D83A

apparent Kd (screen): 1.27 nM
B18: K35D (designed binder)
chain: B1 chain with K35D, D83A

apparent Kd (screen): 0.653 nM
B19: D65F (designed binder)
chain: B1 chain with D65F, D83A

apparent Kd (screen): 3.63 nM
B20: E67Y (designed binder)
chain: B1 chain with E67Y, D83A

apparent Kd (screen): 0.956 nM
B21: A91I (designed binder)
chain: B1 chain with D83A, A91I

apparent Kd (screen): 0.539 nM
B22: A15C (designed binder)
chain: B1 chain with A15C, D83A

apparent Kd (screen): 0.49 nM
B23: E33M (designed binder)
chain: B1 chain with E33M, D83A

apparent Kd (screen): 0.653 nM
B24: E81L (designed binder)
chain: B1 chain with E81L, D83A

apparent Kd (screen): 0.869 nM
B25: R8L (designed binder)
chain: B1 chain with R8L, D83A

apparent Kd (screen): 0.653 nM
B26: L26I (designed binder)
chain: B1 chain with L26I, D83A

apparent Kd (screen): 1.05 nM
B27: L93S (designed binder)
chain: B1 chain with D83A, L93S

apparent Kd (screen): 0.446 nM
B28: E58L (designed binder)
chain: B1 chain with E58L, D83A

apparent Kd (screen): 0.593 nM
B29: Q34A (designed binder)
chain: B1 chain with Q34A, D83A

apparent Kd (screen): 1.05 nM
B30: E77S (designed binder)
chain: B1 chain with E77S, D83A

apparent Kd (screen): 10.4 nM
B31: E67L (designed binder)
chain: B1 chain with E67L, D83A

apparent Kd (screen): 0.252 nM
B32: R13W (designed binder)
chain: B1 chain with R13W, D83A

apparent Kd (screen): 0.49 nM
B33: Y22Q (designed binder)
chain: B1 chain with Y22Q, D83A

apparent Kd (screen): 0.718 nM
B34: L93K (designed binder)
chain: B1 chain with D83A, L93K

apparent Kd (screen): 0.653 nM
B35: L39I (designed binder)
chain: B1 chain with L39I, D83A

apparent Kd (screen): 4.39 nM
B36: L6P (designed binder)
chain: B1 chain with L6P, D83A

apparent Kd (screen): 1.16 nM
B37: A23F (designed binder)
chain: B1 chain with A23F, D83A

apparent Kd (screen): 0.49 nM
B38: R14A (designed binder)
chain: B1 chain with R14A, D83A

apparent Kd (screen): 0.405 nM
B39: R13E (designed binder)
chain: B1 chain with R13E, D83A

apparent Kd (screen): 3.99 nM
B40: A19R (designed binder)
chain: B1 chain with A19R, D83A

apparent Kd (screen): 0.277 nM
B41: S47W (designed binder)
chain: B1 chain with S47W, D83A

apparent Kd (screen): 0.335 nM
B42: R14D (designed binder)
chain: B1 chain with R14D, D83A

apparent Kd (screen): 0.653 nM
B43: A15M (designed binder)
chain: B1 chain with A15M, D83A

apparent Kd (screen): 12.5 nM
B44: A28F (designed binder)
chain: B1 chain with A28F, D83A

apparent Kd (screen): 1.16 nM
B45: F31K (designed binder)
chain: B1 chain with F31K, D83A

apparent Kd (screen): 0.49 nM
B46: V100M (designed binder)
chain: B1 chain with D83A, V100M

apparent Kd (screen): 0.142 nM
B47: L27D (designed binder)
chain: B1 chain with L27D, D83A

apparent Kd (screen): 0.718 nM
B48: E58P (designed binder)
chain: B1 chain with E58P, D83A

apparent Kd (screen): 0.653 nM
B49: P32F (designed binder)
chain: B1 chain with P32F, D83A

apparent Kd (screen): 0.653 nM
B50: A105L (designed binder)
chain: B1 chain with D83A, A105L

apparent Kd (screen): 2.05 nM
B51: I49V (designed binder)
chain: B1 chain with I49V, D83A

apparent Kd (screen): 1.4 nM
B52: A23Y (designed binder)
chain: B1 chain with A23Y, D83A

apparent Kd (screen): 1.16 nM
B53: V104H (designed binder)
chain: B1 chain with D83A, V104H

apparent Kd (screen): 0.79 nM
B54: Y22S (designed binder)
chain: B1 chain with Y22S, D83A

apparent Kd (screen): 0.593 nM
B55: A17N (designed binder)
chain: B1 chain with A17N, D83A

apparent Kd (screen): 0.277 nM
B56: A17L (designed binder)
chain: B1 chain with A17L, D83A

apparent Kd (screen): 1.86 nM
B57: R61N (designed binder)
chain: B1 chain with R61N, D83A

apparent Kd (screen): 0.956 nM
B58: L82Q (designed binder)
chain: B1 chain with L82Q, D83A

apparent Kd (screen): 18.3 nM
B59: W70N (designed binder)
chain: B1 chain with W70N, D83A

From PMC12416549 (2024)
